We go through one substance from paper PMC3909728.

A value given as a limit tells only on which side of the number the result lay.

The series deals with eVP35 IID WT (Ebola virus (EBOV)). As to the kind of experiment: filter binding.

As for dsRNA, the binding signal (fraction bound) is less than 0.3.
